Reference: publication PMC6120557

Molecular target: chemokine receptor 4 (CXCR4), GFP‐tagged, on MDAMB231 X4 cells (human) (UniProt P61073)
Experiment: flow cytometry on cells

UniProt P61073, sequence (P61073 whole entry): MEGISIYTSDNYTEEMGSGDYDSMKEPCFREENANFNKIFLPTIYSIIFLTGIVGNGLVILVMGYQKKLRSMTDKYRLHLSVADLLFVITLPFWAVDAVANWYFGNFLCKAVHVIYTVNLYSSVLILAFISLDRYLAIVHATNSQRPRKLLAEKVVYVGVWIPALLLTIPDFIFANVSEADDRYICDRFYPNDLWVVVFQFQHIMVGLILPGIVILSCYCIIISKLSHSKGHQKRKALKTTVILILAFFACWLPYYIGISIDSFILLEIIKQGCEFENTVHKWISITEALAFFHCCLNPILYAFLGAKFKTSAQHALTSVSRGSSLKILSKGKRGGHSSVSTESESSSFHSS

Substance	Kd [µM]
Cy5‐S‐S‐Cy3‐AcTZ14011 (peptide)	> 0.5
N3‐Cy5‐AcTZ14011 (peptide)	0.222
